The text below walks through data of the supplement of paper PMC11780869.

This data set concerns Bacillus subtilis. Description: cleaved RNA product abundance (RNA/gDNA barcode ratio) relative to median wild-type variant (ratio to wild type); higher = more accumulation of the downstream cleavage product. The method, boiled down:
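Reporter mRNAs based on truncated aprE or tetM carried barcoded, mutagenized RNase Y cleavage-site windows built from oligos with a 9% error rate and were integrated into the B. subtilis chromosome. Cultures grew in LB at 37°C from OD600 0.0003 to 0.3. Cleaved RNA was gel-selected, reverse transcribed and barcode-sequenced together with genomic DNA barcodes, and UMIs were collapsed. Cleaved product abundance is the per-construct ratio of RNA to gDNA barcodes, scaled to the median of constructs carrying the unmutated site.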

The mark [1] stands for this setting: experiment (reporter, strain, medium): exp 4a: truncated aprE reporter, strain BJT201 with 2% xylose (RNase J1 expressed), cleavage site: cggR-gapA (positions -7 to +36 mutated).
Where [2] appears, read: experiment (reporter, strain, medium): exp 8a: truncated aprE reporter, strain BJT201 with 2% xylose (RNase J1 expressed), cleavage site: glnRA (positions -5 to +31 mutated).
[3] abbreviates: experiment (reporter, strain, medium): exp 2b: truncated aprE reporter, strain BJT200, cleavage site: cggR-gapA (positions -7 to +36 mutated).
[4] abbreviates: experiment (reporter, strain, medium): exp 6: tetM reporter, strain 168, cleavage site: cggR-gapA (positions -7 to +36 mutated).

In the case of “ACAGACGAAGGAGCCGCAAAGAAGTTATTAATGGATGAACAATCCCTCAATATAAATATCTCTCACTTATTTAAA”, under setting [1], the “cleaved RNA product abundance” value is 0.143.

“CGACATGTCCCGCTTCTTTCATTAATCCGTTAGCAACTGTTTTGCCATATACATTTACGTTTTAAGAGGAGGAAT”: under setting [2], the “cleaved RNA product abundance” value turned out to be 0.6.

Take “ACAGACGAAGGAGCCGCAATGAATTTATTAAGGGATGAATAATCCCTCAATATAAATATCTCTCACTTATTTAAA”: the “cleaved RNA product abundance” value under setting [1] stood at 0.786.

With “ACAGACGAAGGAGCCGCAAAGAAGTTATTAACTGATGAATAATCCCTCAATATAAATATCTCTCACTTATTTAAA”, the “cleaved RNA product abundance” value reads like this: under setting [3], 0.0892; under setting [1], 0.118.

With “CGACATGTCCCGCTTCTTTCATTAATCCGTTTGCAACTGATTTGCTATATACATTTACCTTTTAAGAGGAGGAAT”, the “cleaved RNA product abundance” value under setting [2] worked out at 0.51.

Consider “ACAGACGAAGGAGCCGCAAAGAAGTTATTAAGGGATGAATCATCCCTTAATATAAATATCTCTCACTTATTTAAA”, for which, under setting [1], the “cleaved RNA product abundance” value was determined as 0.46.

Consider “CGACATGTCCCGCTTCTTTCATTAATCCGTTAGCAACTGTTTTGCCATATACATATACCTTTTAAGAGGAGGAAT”, for which, under setting [2], the “cleaved RNA product abundance” value stood at 0.198.

On to “ACAGACGAAGGAGCCGCAAAAAAGTTATTAAGGGATGAATAATCCCTCAATATAAATATCTCTCACTTATTTAAA”, for which the “cleaved RNA product abundance” value turned out to be 1.06 under setting [3], 1.04 under setting [1] and 1.04 under setting [4].

For “ACAGACGAAGGAGCCGCAAAGAAGTTATTAAGGGAAGAATAATCCCTCAATATAATTATCTCTCACTTATTTAAA”, the “cleaved RNA product abundance” value is, setting by setting: under setting [3], 0.292; under setting [1], 0.314.

For “ACAGACGAAGGAGCCGCAAAGAAGTTATAAAGGTATGAATAATCCCTCAATATAAATATCTCTCACTTATTTAAA”, the “cleaved RNA product abundance” value was found to be 0.0925 under setting [3] and 0.0975 under setting [1].

As for “ACAGACGAAGGAGCCGCAAATAAATTATTAAGGGATGAATAATACCTCAATATAAATATCTCTCACTTATTTAAA”, the “cleaved RNA product abundance” value under setting [1] is 0.0858.

In the case of “ACAGACGAAGGAGCCGCAAAGATGTTATTAAGGGATGCATAATCCCTCAATATAAATATCTCTCACTTATTTAAA”, the “cleaved RNA product abundance” value is 0.859 under setting [3] and 1.1 under setting [1].

Turning to “CGACATGTCCCGCTTCTTTCATTAATCCGTTAGCAACTGTTTTGCAATATACATTTATCTTTTAAGAGGAGGAAT”, under setting [2], the “cleaved RNA product abundance” value is 0.505.

As to “CGACATGTCCCGCTTCTTTCATTAATCCGTTAGCAACTCTTTTACTATATACATTTACCTTTTAAGAGGAGGAAT”, the “cleaved RNA product abundance” value under setting [2] stood at 0.579.

Take “ACAGACGAAGGAGCCGCAAAGAAGTTATTAAGGGATTAATAATCCCTTAATATAAATATCTCTCACTTATTTAAA”: the “cleaved RNA product abundance” value under setting [1] came out at 0.563.

In the case of “ACAGACGAAGGAGCCGCAAAAAAGTGATTAAGGGATGAATAATCCCTCAATATAAATATCTCTCACTTATTTAAA”, the “cleaved RNA product abundance” value reads like this: under setting [3], 0.276; under setting [1], 0.583.

In the case of “CGACATGTCCCGCTTCTTTCATTAATCCGTTAGCAACTTTTTCGCTATATACATTTACCTTTTAAGAGGAGGAAT”, the “cleaved RNA product abundance” value under setting [2] was found to be 0.662.

“ACAGACGAAGGAGCCGCAAAGAAGTTATTACGAGATGAATAATCCCTCAATATAAATATCTCTCACTTATTTAAA”: the “cleaved RNA product abundance” value under setting [3] was determined as 0.104 and the “cleaved RNA product abundance” value under setting [1] amounted to 0.113.

In the case of “ACAGACGAAGGAGCCGCAAAGAAGTTATAAAGGGATGAATAATCCCTCAATATAAAAATCTCTCACTTATTTAAA”, the “cleaved RNA product abundance” value under setting [3] came out at 0.338.

In the case of “ACAGACGAAGGAGCCGCAAAGGAGTTATTAAGGAATGAATAATCCCTCAATATAAATATCTCTCACTTATTTAAA”, the “cleaved RNA product abundance” value under setting [1] amounted to 0.144.

As to “CGACATGTCCCGCTTCTTTCATTAATCCGTTATTAACTGTTTTACTATATACATTTACCTTTTAAGAGGAGGAAT”, the “cleaved RNA product abundance” value under setting [2] is 0.408.

Regarding “ACAGACGAAGGAGCCGCAAAGAAGATATTAAGGGATGAATAATCCCTAAATATAAATATCTCTCACTTATTTAAA”, the “cleaved RNA product abundance” value reads like this: under setting [3], 0.702; under setting [1], 0.665; under setting [4], 0.475.

With “ACAGACGAAGGAGCCGCAAAGAAGTTATTAAGGAAAGAATAATCCCTCAATATAAATATCTCTCACTTATTTAAA”, under setting [1], the “cleaved RNA product abundance” value came out at 0.0978.

“CGACATGTCCCGCTTCTTTCATTAATTCGTTAGCAACTGTTTTGCTATATATATTTACCTTTTAAGAGGAGGAAT”: the “cleaved RNA product abundance” value under setting [2] is 1.55.

For the sequence “ACAGACGAAGGAGCCGCAAAGAAGTTATTAAGGGATGAAGAATTCCTCAATATAAATATCTCTCACTTATTTAAA”, under setting [1], the “cleaved RNA product abundance” value was determined as 0.29.

Take “ACAGACGAAGGAGCCGCAAAGAAGCTATTAAGGGATGAATATTCCCTCAATATAAATATCTCTCACTTATTTAAA”: the “cleaved RNA product abundance” value under setting [3] was 0.469 and the “cleaved RNA product abundance” value under setting [1] was determined as 0.56.

For the sequence “ACAGACGAAGGAGCCGCAAAGAAGTTATTCAGGGATTAATAATCCCTCAATATAAATATCTCTCACTTATTTAAA”, the “cleaved RNA product abundance” value was determined as 0.815 under setting [3] and 1 under setting [1].

As to “ACAGACGAAGGAGCCGCAAAGAAATAATTAAGGGATGAATAATCCCTCAATATAAATATCTCTCACTTATTTAAA”, the “cleaved RNA product abundance” value runs as follows: under setting [3], 0.25; under setting [1], 0.381.

Turning to “ACAGACGAAGGAGCCGCAAAGATGTTATTAAGGTATGAATAATCCCTCAATATAAATATCTCTCACTTATTTAAA”, under setting [1], the “cleaved RNA product abundance” value came to 0.161.

Consider “ACAGACGAAGGAGCCGCAAAGAAGTTATTAAGGAATGAATAATCCCTGAATATAAATATCTCTCACTTATTTAAA”, for which the “cleaved RNA product abundance” value under setting [1] was 0.0984.

“ACAGACGAAGGAGCCGCAATGAAGTTTTTAAGGGATGAATAATCCCTCAATATAAATATCTCTCACTTATTTAAA”: the “cleaved RNA product abundance” value under setting [1] came out at 0.578.

For “CGACATGTCCCGCTTCTTTCATTAATCCGACAGCAACTGTTTTGCTATATACATTTACCTTTTAAGAGGAGGAAT”, the “cleaved RNA product abundance” value under setting [2] turned out to be 0.335.

In the case of “ACAGACGAAGGAGCCGCAAAGAAGATATTAAGGGATGAATAATCCCTCAATAAAAATATCTCTCACTTATTTAAA”, the “cleaved RNA product abundance” value under setting [3] stood at 0.142.

With “ACAGACGAAGGAGCCGCAAAGAAGTTATTAAGGGATGAATAATCACTCAATATAAATTTCTCTCACTTATTTAAA”, the “cleaved RNA product abundance” value under setting [1] was determined as 0.112.

For the sequence “ACAGACGAAGGAGCCGCAACGAAGTTATTAAGGGATGAATAATCCCTCAATATAAATATCTCTCACTTATTTAAA”, the “cleaved RNA product abundance” value came to 0.908 under setting [3], 0.915 under setting [1] and 0.595 under setting [4].

As to “ACAGACGAAGGAGCCGCAAAGAAGTTATTAACGTATGAATAATCCCTCAATATAAATATCTCTCACTTATTTAAA”, the “cleaved RNA product abundance” value worked out at 0.098 under setting [3] and 0.0853 under setting [1].

As for “CGACATGTCCCGCTTCTTTCATTAATCCGTTAACAACTGTTTTGTTATATACATTTACCTTTTAAGAGGAGGAAT”, the “cleaved RNA product abundance” value under setting [2] worked out at 0.271.

“ACAGACGAAGGAGCCGCAAAGAAGTTATTAAGGGATGAATAATCCCTCAATACAAATATCTCTCACTTATTTAAA”: the “cleaved RNA product abundance” value runs as follows: under setting [3], 0.117; under setting [1], 0.0683; under setting [4], 0.23.

“CGACATGTCCCGCTTCTTTCATTAATCCGTTAGATACTGTTTTGCTATATACATTTACCTTTTAAGAGGAGGAAT”: the “cleaved RNA product abundance” value under setting [2] came out at 0.273.

As for “ACAGACGAAGGAGCCGCAAAGAAGTTATTAAGGTATGAATAATCCCTCAATATAAATATTTCTCACTTATTTAAA”, under setting [1], the “cleaved RNA product abundance” value came out at 0.121.

With “ACAGACGAAGGAGCCGCAATGAAGTTATTAAGGGATGAATAATGCCTCAATATAAATATCTCTCACTTATTTAAA”, the “cleaved RNA product abundance” value under setting [3] was 0.122.

Regarding “CGACATGTCCCGCTTCTTTCATTAATCCGTTAGCATCTGTTTTGCTATATACATTTACATTTTAAGAGGAGGAAT”, under setting [2], the “cleaved RNA product abundance” value was determined as 1.1.

On to “ACAGACGAAGGAGCCGCAAAGAAGTTATTAAGGGATCAATAATCCCTCAATATAAATACCTCTCACTTATTTAAA”, for which the “cleaved RNA product abundance” value by setting is: under setting [3], 0.479; under setting [1], 0.36.

Take “ACAGACGAAGGAGCCGCAAAGAAGTTAATAAGTGATGAATAATCCCTCAATATAAATATCTCTCACTTATTTAAA”: the “cleaved RNA product abundance” value under setting [3] came to 0.167 and the “cleaved RNA product abundance” value under setting [1] is 0.129.

As for “ACAGACGAAGGAGCCGCAAAGAAGTTATTAAGGGATCAATAATACCTCAATATAAATATCTCTCACTTATTTAAA”, under setting [1], the “cleaved RNA product abundance” value stood at 0.146.

Consider “ACAGACGAAGGAGCCGCAAAGAAGTTATTAAGGGATGAATAATCCCTCAATATAAACCTCTCTCACTTATTTAAA”, for which the “cleaved RNA product abundance” value under setting [1] came out at 0.171.

“ACAGACGAAGGAGCCGCAAAGAAGTTATTAAGGGATGAATAACCCCTCAATCTAAATATCTCTCACTTATTTAAA”: the “cleaved RNA product abundance” value under setting [1] was 0.0932.

Take “ACAGACGAAGGAGCCGCAAAAAAGTTATTAAGGGATGAATAATCCCTCAATATAAATTTCTCTCACTTATTTAAA”: under setting [1], the “cleaved RNA product abundance” value was determined as 1.04.

Turning to “CGACATGTCCCGCTTCTTTCATTAATCCGTTAGCATCTGTTTTGCTATATACATTTAACTTTTAAGAGGAGGAAT”, the “cleaved RNA product abundance” value under setting [2] amounted to 0.999.

For the sequence “CGACATGTCCCGCTTCTTTCATTACTCCGTTAGCAACTGTTTTGCTATAAACATTTACCTTTTAAGAGGAGGAAT”, the “cleaved RNA product abundance” value under setting [2] was 0.608.

For “ACAGACGAAGGAGCCGCAAAGAAGTTATTAAGGGATGAACAATCACTCAATATAAATATCTCTCACTTATTTAAA”, the “cleaved RNA product abundance” value under setting [1] was 0.105.

Regarding “ACAGACGAAGGAGCCGCAAAGAAGTTATTAAGGGATGCACAATCCCTCAATATAAATATCTCTCACTTATTTAAA”, under setting [1], the “cleaved RNA product abundance” value turned out to be 0.547.

Take “ACAGACGAAGGAGCCGCAAAGAAGTTATTAAGGCATGAATAATCCCTCAATAGAAATATCTCTCACTTATTTAAA”: the “cleaved RNA product abundance” value under setting [1] was 0.0906.
